{"source": "patent US20170173114A1", "about": "“METHODS AND COMPOSITIONS FOR INDUCTION OF UCP1 EXPRESSION” (Joslin Diabetes Center, Inc., priority 2014, published 2017)", "molecules": {"B1": {"name": "FGF6: fibroblast growth factor 6; recombinant human FGF from R&D Systems, or mouse FGF6 cDNA overexpressed by lentiviral vector (protein)", "chain": "KRQRRLYCNVGIGFHLQVLPDGRISGTHEENPYSLLEISTVERGVVSLFGVRSALFVAMNSKGRLYATPSFQEECKFRETLLPNNYNAYESDLYQGTYIALSKYGRVKRGSKVSPIMTVTHFLPRI"}}, "key": {"UCP1": {"tested_on": "UCP1", "assay": "UCP1 expression in immortalized human brown fat progenitors", "format": "cell-based", "procedure": "Primary stromal-vascular fraction (SVF) from human neck fat was isolated as described previously (Cannon and Nedergaard, Physiol Rev, 84: 277-359, 2004). Briefly, freshly resected superficial fat (pooled subcutaneous and subplatysmal) and fat located in the deeper neck regions (pooled carotid sheath, longus colli and prevertebral) were collected, minced and digested using collagenase 1 (2 mg/mL in PBS with the addition of 3.5% BSA; Worthington Biochemical Corporation, Lakewood, N.J.), and the SVF was isolated. SVF cells were plated and grown in high glucose Dulbecco's modified Eagle's medium (DMEM/H) supplemented with 10% (v/v) fetal bovine serum (FBS) and 1% penicillin/streptomycin. For adipocyte differentiation, cells were grown to confluent for 6 days (day 6) and then exposed to adipogenic induction mixture in DMEM/H medium containing isobutylmethylxanthine (0.5 mM), dexamethasone (0.1 μM), human insulin (0.5 μM; Roche Applied Science, Indianapolis, Ind.), T3 (2 nM), indomethacin (30 μM), pantothenate (17 μM), biotin (33 μM) and 2% FBS for another 12 days (referred as day 18). Induction medium was changed every 3 days until collected.\nPrimary SVF cells were immortalized with human telomere reverse transcriptase (hTERT) as described previously (Tchkonia, T., et al. Diabetes 55, 2571-2578, 2006). […]"}, "[1]": {"tested_on": "PPARγ, aP2, FAS, PRDM16, PGC1α, CIDEA", "assay": "Adipogenic and brown fat marker mRNA expression in WT-1 brown preadipocytes", "format": "cell-based, murine", "procedure": "Total RNA was isolated with QIAzol lysis reagent (Qiagen, Valencia, Calif.) and purified by RNeasy Mini columns (Qiagen) following the manufacture's instructions. cDNA was prepared from total RNA using the Advantage RT-PCR kit (BD Biosciences, Palo Alto, Calif.) according to manufacturer's instructions. Diluted cDNA was used in a PCR reaction with SYBR Green Master Mix (Applied Biosystems, Foster City, Calif.) and primers specifically designed for detection of the gene of interest. PCR reactions were run in duplicate for each sample and quantitated in the ABI Sequence Detection System (Applied Biosystems). Data were expressed as arbitrary units after normalization to levels of expression of internal controls for each sample. Sequences of primers for specific genes are each obtained from the published literature or designed using publically available gene sequence databases. Unless otherwise indicated, gene expression data described in the examples below was obtained using QPCR.\nThe effect of FGF6 on differentiation of WT-1 murine brown preadipocytes was also examined. WT-1 cells can be induced to undergo brown adipocyte differentiation, characterized by lipid accumulation and expression of adipogenic and brown fat markers, as described above (Klein et al. (1999) J Biol Chem 274:34795; Tseng et al. (2005) Nat Cell Biol 7:601). WT-1 cells were treated with FGF6 in growth media (DMEM+10% FBS), a vehicle control (“control” or “C” referred to in FIGS. 3A-D), or induction media (“induction” or “I” referred to in FIGS. 3A-D) as described above for seven days. Following the treatment, cells were examined for the color of the culture media in combination with oil Red O staining, expression of adipogenic markers, expression of brown fat markers, immunofluorescent staining of cells with UCP1 and DPAI, and Western blot analysis to determine the presence of UCP1 and β-tubulin. The results are described in FIGS. 3A to 3D.\nFGF2, FGF6 and FGF9 were used at a dosage of 50 ng/mL, 100 ng/mL, 200 ng/mL or 300 ng/mL. FGF21 was used at the dosage of 50 ng/ml and 500 ng/mL. The concentration of BMP7 was 3.3 nM. RNA was isolated and UCP1 and PPARγ expression levels were evaluated by quantitative reverse transcription polymerase chain reaction (Q-RT-PCR) analysis after 24 hours (i.e., 1 day) (FIG. 14A), 2 days (FIG. 14B), 5 days (FIG. 14C) and 7 days (FIG. 14D) of treatment. All experiments were performed triplicate and the data are presented as mean+/−SEM.\nFGF2, FGF6 and FGF9 were used at a dosage of 200 ng/mL. FGF21 was used at a dosage of 500 ng/mL. The concentration of BMP7 was 3.3 nM. mRNA was isolated and UCP1 and PPARγ expression levels were evaluated by quantitative reverse transcription polymerase chain reaction (Q-RT-PCR) analysis after 24 hours (i.e., 1 day), 2 days, 5 days and 7 days of treatment (FIG. 15). All experiments were performed triplicate and the data are presented as mean+/−SEM."}}, "data": [{"molecule": "B1", "values": [{"measurement": "increase in UCP1 expression in human brown fat precursors", "setting": "UCP1", "value": "~60", "unit": "fold"}, {"measurement": "PPARγ expression level, time course", "setting": "[1]; 200 ng/mL with insulin and T3, 1, 2, 5, 7 days", "value": "very low levels of PPARγ"}, {"measurement": "PPARγ expression level", "setting": "[1]; 50-300 ng/mL with insulin and T3, 1, 2, 5 and 7 days", "value": "very low levels of PPARγ"}, {"measurement": "expression of transcriptional regulators of UCP1 (PGC1α, PPARγ, PRDM16)", "setting": "[1]; 50-300 ng/mL, three days", "value": "did not increase"}, {"measurement": "mRNA expression of other brown fat markers (PRDM16, PGC1α, CIDEA)", "setting": "[1]; WT-1, seven days", "value": "did not, in contrast, have as significant an impact"}, {"measurement": "mRNA expression of adipogenic markers (PPARγ, aP2, FAS)", "setting": "[1]; WT-1, seven days, control, induction media or FGF6", "value": "only the induction media significantly increased each of the adipogenic markers"}]}]}
